According to the supplement of paper PMC11136658:

Test system: peptide library, one residue held at a place counted from the Y acceptor
Assay: relative phosphorylation of the sub-library (ratio to the mean residue at this position); higher = residue favoured
In short: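 Every value reflects phosphorylation relative to the mean randomized residue. The sum of the 18 randomized residues, or 16 in the Ser/Thr-free library, served to normalize intensities at each position, which were then multiplied by that number. Intensities came from phosphorimaging with ImageQuant of biotinylated Tyr-centred peptides captured on streptavidin membranes after 90 min with purified recombinant kinases and 50 μM ATP plus γ-32P-ATP.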

Sequence of AXL, construct: aa473-end, human (P30530 473-894, looked up): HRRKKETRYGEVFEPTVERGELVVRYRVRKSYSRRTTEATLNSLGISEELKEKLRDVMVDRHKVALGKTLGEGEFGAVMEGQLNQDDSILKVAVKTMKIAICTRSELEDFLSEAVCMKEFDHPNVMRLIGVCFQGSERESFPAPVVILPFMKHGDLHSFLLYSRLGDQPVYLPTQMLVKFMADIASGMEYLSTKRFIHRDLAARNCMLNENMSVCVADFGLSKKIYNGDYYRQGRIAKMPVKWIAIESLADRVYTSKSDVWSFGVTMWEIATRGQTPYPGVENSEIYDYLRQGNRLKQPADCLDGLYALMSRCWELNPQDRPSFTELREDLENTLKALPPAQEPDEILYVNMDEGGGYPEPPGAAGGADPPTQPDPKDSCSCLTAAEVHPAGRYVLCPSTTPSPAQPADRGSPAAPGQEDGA
Sequence of ABL2, construct: aa38-end, human (P42684 38-1182, looked up): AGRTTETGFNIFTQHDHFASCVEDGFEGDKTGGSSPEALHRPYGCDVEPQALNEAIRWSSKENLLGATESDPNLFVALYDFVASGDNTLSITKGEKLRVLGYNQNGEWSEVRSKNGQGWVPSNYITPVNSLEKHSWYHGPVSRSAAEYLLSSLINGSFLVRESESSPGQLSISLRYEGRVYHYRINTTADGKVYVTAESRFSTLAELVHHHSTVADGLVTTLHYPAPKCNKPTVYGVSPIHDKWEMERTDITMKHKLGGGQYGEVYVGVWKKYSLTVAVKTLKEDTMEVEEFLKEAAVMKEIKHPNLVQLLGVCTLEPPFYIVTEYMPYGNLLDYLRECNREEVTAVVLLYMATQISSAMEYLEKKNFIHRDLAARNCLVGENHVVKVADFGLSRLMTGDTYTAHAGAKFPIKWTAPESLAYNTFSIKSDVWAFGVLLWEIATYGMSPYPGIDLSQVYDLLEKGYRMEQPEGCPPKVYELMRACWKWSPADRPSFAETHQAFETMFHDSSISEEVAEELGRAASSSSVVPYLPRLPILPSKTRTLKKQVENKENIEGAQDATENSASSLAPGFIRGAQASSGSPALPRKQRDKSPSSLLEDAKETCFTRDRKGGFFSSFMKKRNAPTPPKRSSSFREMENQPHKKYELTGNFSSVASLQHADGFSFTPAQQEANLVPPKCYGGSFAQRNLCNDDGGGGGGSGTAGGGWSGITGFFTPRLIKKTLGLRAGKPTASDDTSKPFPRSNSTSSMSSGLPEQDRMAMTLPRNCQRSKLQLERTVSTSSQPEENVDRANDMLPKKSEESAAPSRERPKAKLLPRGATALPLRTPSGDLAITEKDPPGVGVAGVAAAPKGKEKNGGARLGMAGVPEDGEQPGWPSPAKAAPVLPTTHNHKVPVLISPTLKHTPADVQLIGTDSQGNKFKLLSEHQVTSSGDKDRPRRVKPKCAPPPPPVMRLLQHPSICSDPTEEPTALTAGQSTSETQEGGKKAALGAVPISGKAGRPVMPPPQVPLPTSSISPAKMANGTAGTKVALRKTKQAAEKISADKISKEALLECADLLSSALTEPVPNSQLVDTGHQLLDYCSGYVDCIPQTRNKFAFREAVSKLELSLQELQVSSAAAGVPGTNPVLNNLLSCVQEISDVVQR
Sequence of ABL1, construct: aa27-end, human (P00519 27-1130, looked up): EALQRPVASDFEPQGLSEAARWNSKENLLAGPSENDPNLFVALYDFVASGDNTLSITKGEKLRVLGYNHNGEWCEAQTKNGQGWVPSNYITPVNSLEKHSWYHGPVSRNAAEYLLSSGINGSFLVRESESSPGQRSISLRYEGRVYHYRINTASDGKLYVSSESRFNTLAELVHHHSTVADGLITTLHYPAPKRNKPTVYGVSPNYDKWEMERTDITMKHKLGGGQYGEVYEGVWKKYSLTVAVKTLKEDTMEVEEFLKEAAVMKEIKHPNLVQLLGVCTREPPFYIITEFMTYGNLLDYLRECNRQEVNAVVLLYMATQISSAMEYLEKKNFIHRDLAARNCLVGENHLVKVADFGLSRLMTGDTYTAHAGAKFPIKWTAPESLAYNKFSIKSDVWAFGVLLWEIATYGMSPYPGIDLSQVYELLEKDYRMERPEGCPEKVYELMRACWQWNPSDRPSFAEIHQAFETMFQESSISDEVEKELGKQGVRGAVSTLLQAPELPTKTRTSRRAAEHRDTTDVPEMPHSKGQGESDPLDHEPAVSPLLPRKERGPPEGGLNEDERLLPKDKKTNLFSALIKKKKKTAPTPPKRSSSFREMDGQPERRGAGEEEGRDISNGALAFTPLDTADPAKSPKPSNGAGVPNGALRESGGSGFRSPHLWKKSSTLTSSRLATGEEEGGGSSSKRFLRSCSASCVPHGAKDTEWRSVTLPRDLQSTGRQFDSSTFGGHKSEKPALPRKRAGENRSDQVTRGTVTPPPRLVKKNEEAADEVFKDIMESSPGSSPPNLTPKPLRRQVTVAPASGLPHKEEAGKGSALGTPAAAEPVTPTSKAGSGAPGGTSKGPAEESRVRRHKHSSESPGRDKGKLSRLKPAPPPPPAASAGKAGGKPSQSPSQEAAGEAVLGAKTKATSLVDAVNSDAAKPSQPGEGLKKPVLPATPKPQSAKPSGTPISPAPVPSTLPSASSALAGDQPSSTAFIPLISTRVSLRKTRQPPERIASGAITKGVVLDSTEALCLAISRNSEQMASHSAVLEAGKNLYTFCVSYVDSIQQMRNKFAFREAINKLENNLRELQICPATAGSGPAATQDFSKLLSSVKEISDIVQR

ABL1, construct: aa27-end, human (from UniProt P00519)
relative phosphorylation
Conditions	at +1	at +2	at +3	at +4	at +5	at -1	at -2	at -3	at -4	at -5
A fixed	3.14	1.24	0.892	0.948	1.12	0.702	1.12	1.02	1.24	1.16
D fixed	0.625	0.513	0.23	0.579	0.651	0.886	0.85	1.21	1.2	1.03
E fixed	0.874	0.93	0.159	0.615	0.611	1.2	1.24	1.91	1.52	0.963
F fixed	0.86	0.975	1.28	1.16	0.705	0.795	0.615	0.796	0.702	0.817
G fixed	1.36	0.628	1.36	1.34	1.27	0.502	1.27	1.16	1.36	1.24
H fixed	1.17	0.749	0.814	1.17	1.1	1.63	0.935	0.919	0.893	1.07
I fixed	0.406	1.05	1.14	0.772	0.681	3.33	0.883	0.491	0.797	0.806
K fixed	0.586	0.815	0.403	1.17	1.17	0.402	0.87	0.79	0.874	1.08
L fixed	0.815	0.961	1.49	0.918	0.987	1.54	1.01	0.885	0.985	0.936
M fixed	1.15	0.954	0.883	1.19	1.09	1.06	0.779	0.928	0.884	0.965
N fixed	0.45	1.01	0.619	0.897	0.922	0.549	0.96	1.18	0.903	1.09
P fixed	0.184	1.02	2.74	0.832	1.38	0.541	1.29	1.14	1.22	1.2
Q fixed	1.13	0.901	0.419	1.09	0.947	0.745	1.08	0.973	1.18	1.07
R fixed	0.969	1.22	0.633	1.36	1.36	0.406	0.825	0.813	0.953	1.19
S fixed	1.16	1.32	1.17	1.01	1.06	0.472	1.12	1.06	0.86	1.01
T fixed	0.843	1.37	1.28	0.939	1.19	0.908	1.19	1.05	0.796	0.97
V fixed	1.03	1.39	1.04	0.925	0.996	1.81	1.4	0.873	1.01	0.873
W fixed	1.26	0.958	1.44	1.08	0.743	0.516	0.567	0.799	0.622	0.509
pThr fixed	0.766	0.921	0.395	0.391	0.458	0.785	0.973	1.51	1.11	0.913
pTyr fixed	1.47	1.77	0.465	0.55	0.607	3.35	1.39	2.36	1.66	1.18

ABL2, construct: aa38-end, human (from UniProt P42684)
relative phosphorylation
Conditions	at +1	at +2	at +3	at +4	at +5	at -1	at -2	at -3	at -4	at -5
A fixed	2.85	1.32	0.871	0.935	1.01	0.717	1.18	1.04	1.16	1.1
D fixed	0.701	0.534	0.245	0.662	0.681	1.01	1.01	1.23	1.32	1.07
E fixed	0.884	1.2	0.199	0.735	0.686	1.45	1.38	1.88	1.69	1.13
F fixed	1.07	0.802	1.21	1.18	0.822	0.756	0.548	0.786	0.675	0.828
G fixed	1.26	0.647	1.23	1.2	1.27	0.49	1.24	1.15	1.33	1.29
H fixed	1.06	0.833	0.868	1.13	1.02	1.62	0.933	1.02	0.859	1.12
I fixed	0.517	0.843	1.46	0.736	0.781	2.9	0.867	0.598	0.774	0.716
K fixed	0.636	0.836	0.439	1.2	1.15	0.425	0.846	0.785	0.926	1.01
L fixed	0.857	0.904	1.47	0.813	0.85	1.55	0.885	0.758	0.87	0.831
M fixed	1.18	0.923	0.861	1.04	1.05	1.05	0.742	0.852	0.907	0.909
N fixed	0.492	1.06	0.756	0.988	1.02	0.674	1.11	1.25	0.871	1.27
P fixed	0.161	1.14	2.59	0.968	1.57	0.556	1.36	1.26	1.34	1.24
Q fixed	1.33	0.97	0.472	1.14	0.969	0.856	1.21	0.957	1.21	1.08
R fixed	1.03	1.27	0.684	1.43	1.4	0.451	0.896	0.883	1.07	1.18
S fixed	1.16	1.24	1.18	0.997	1.13	0.495	1.18	1.12	0.812	0.966
T fixed	0.802	1.42	1.09	0.919	1.11	1.03	1.05	1.11	0.74	0.923
V fixed	0.938	1.33	0.988	0.872	0.79	1.54	1.13	0.771	0.828	0.84
W fixed	1.05	0.737	1.39	1.04	0.69	0.421	0.422	0.552	0.623	0.506
pThr fixed	0.853	1.01	0.2	0.405	0.454	0.971	1.03	1.36	1.07	1.06
pTyr fixed	1.61	1.79	0.391	0.696	0.52	3.96	1.26	1.9	1.49	1.26

AXL, construct: aa473-end, human (from UniProt P30530)
relative phosphorylation
Conditions	at +1	at +2	at +3	at +4	at +5	at -1	at -2	at -3	at -4	at -5
A fixed	1.58	0.759	0.52	0.973	0.953	0.707	0.976	0.87	1.16	0.962
D fixed	0.68	0.48	0.401	0.874	1.06	0.354	0.754	0.897	0.884	0.822
E fixed	1.19	0.946	0.327	1.07	1.01	0.34	0.896	1.15	1.1	0.813
F fixed	1.12	1.43	1.61	1.03	0.877	1.51	0.6	0.911	0.948	0.965
G fixed	0.671	0.33	0.527	1.41	1.81	0.306	1.39	1.25	1.36	1.36
H fixed	1.1	0.976	1.05	1.33	0.794	1.77	1.1	1	0.905	1.08
I fixed	1.42	1.31	2.32	0.763	0.446	2.51	0.913	0.722	0.915	0.969
K fixed	0.356	0.723	0.289	0.849	0.911	0.718	1.21	1.09	1.15	1.11
L fixed	0.971	1.33	2.33	0.84	0.548	2.03	0.762	0.792	0.986	0.913
M fixed	1.09	1.13	1.55	1.02	0.69	1.05	0.639	0.84	0.891	0.977
N fixed	0.352	0.811	0.456	0.806	1.25	1.1	1.16	1.29	0.905	1.02
P fixed	0.183	0.751	0.892	1.29	2.23	0.518	1.1	1.25	1.09	1.18
Q fixed	1.02	0.801	0.818	1.18	1.14	0.595	1.23	0.965	1.08	1.11
R fixed	0.457	0.845	0.425	0.928	0.64	0.549	1.14	1.12	1.19	1.26
S fixed	1.2	0.804	0.633	0.894	1.18	0.649	1.44	1.23	0.873	0.843
T fixed	1.29	0.941	0.79	0.849	1.13	0.862	1.11	1.04	0.826	0.841
V fixed	1.72	1.2	1.45	0.744	0.6	1.27	1.05	0.785	0.862	0.827
W fixed	1.6	2.42	1.61	1.16	0.723	1.15	0.539	0.791	0.88	0.963
pThr fixed	1.2	0.933	0.308	0.609	0.743	0.426	0.736	0.827	0.7	0.706
pTyr fixed	1.74	2.15	0.402	0.659	0.818	1.08	0.692	1.06	0.883	0.7
